Measurements: patent publication US7423021B2, “Peptidic thrombin inhibitors” (NSCI Novel Science International GmbH, priority 2003, dated 2008)
Numbered stars: 1 amine (or outer) side, 2 acyl side, 3 side chain; on linkers, the order of the positions; unused ones are H or OH. Square brackets hold non-standard residues; d marks the D form. Peptide text beside a SMILES is read from it. * marks the point of attachment. Ppd = 4-phenylpiperidine-4-carboxylic acid, O=C(C1(c2ccccc2)CCN([*:1])CC1)[*:2]; Phe(4-NO2) = N[C@@H](Cc1ccc([N+](=O)[O-])cc1)C(=O)O; Tpi = O=C(O)[C@@H]1Cc2c([nH]c3ccccc23)CN1; X1 = N=C(N)NC[C@H]1CC[C@H](C(=O)*)CC1; hArg = N=C(N)NCCCC[C@H](N)C(=O)O; Tic = O=C(O)[C@@H]1Cc2ccccc2CN1; Cha = N[C@@H](CC1CCCCC1)C(=O)O; dCha = N[C@H](CC1CCCCC1)C(=O)O; Phg = N[C@H](C(=O)O)c1ccccc1; Nle = CCCC[C@H](N)C(=O)O; Aze = O=C(O)[C@@H]1CCN1

molecular target: thrombin (Homo sapiens, UniProt P00734); assay: in-vitro inhibition of the amidase activity of thrombin (fluorogenic substrate Tos-Gly-Pro-Arg-AMC); type: biochemical; design: 10 μl of human thrombin solution; settings: not given
Description: The values of the inhibiting constants Ki were obtained from assays in which thrombin hydrolyzes the fluorogenic substrate Tos-Gly-Pro-Arg-(7-amino-4-methylcumarin). The assays were carried out in […] of assay buffer (0.05 M tris, 0.1 M NaCl, 0.1% PEG 8000, pH 7.6) with 10 μl of human thrombin solution (10^−5 U/μl in the assay buffer) and 140 μl of a solution of the fluorogenic substrate in an assay buffer at a concentration of 30 μM. Solutions of the test compound (10 μl) were added at various concentrations. The rates of the hydrolysis of the substrate were measured by monitoring the reactions at […] of the release of 7-amino-4-methylcumarin using AMC. The reaction reached an equilibrium state within three minutes, after thrombin, the substrate, and an inhibitor were mixed. The kinetic data of the competing inhibition (Km, Vmax, and Ki) were analyzed by means of the representation according to Hanes (A/V against A at various values of A, where A is the substrate concentration and V the reaction rate).

Compound	Ki
N=C(N)NCCCC[C@H](NC(=O)[C@@H](Cc1ccc(O)cc1)NC(=O)[C@@H]1CCN1C(=O)[C@@H](CC1CCCCC1)NC(=O)[C@H]1CC[C@H](CNC(=N)N)CC1)C(N)=O [Example 31, Trans-4-(guanidinomethyl)cyclohexanecarboxylic acid-D-Cha-L-Aze-D-Try-L-Har amide] (X1-[dCha][Aze][dY][hArg]-NH2)	3 nM

same assay, conditions: peptide concentration of 250 nM

Compound	inhibition of the amidase activity of the thrombin
N-acetyl-L-Trp-D-Cha-L-Aze-D-Tyr-L-Har amide (Ac-W[dCha][Aze][dY][hArg]-NH2; SMILES CC(=O)N[C@@H](Cc1c[nH]c2ccccc12)C(=O)N[C@H](CC1CCCCC1)C(=O)N1CC[C@H]1C(=O)N[C@H](Cc1ccc(O)cc1)C(=O)N[C@@H](CCCCNC(=N)N)C(N)=O) [Example 18]	76%
N-acetyl-D-Phe-D-Cha-L-Aze-D-Tyr-L-Har amide (Ac-[dF][dCha][Aze][dY][hArg]-NH2; SMILES CC(=O)N[C@H](Cc1ccccc1)C(=O)N[C@H](CC1CCCCC1)C(=O)N1CC[C@H]1C(=O)N[C@H](Cc1ccc(O)cc1)C(=O)N[C@@H](CCCCNC(=N)N)C(N)=O) [Example 20]	77%
N-acetyl-L-Cha-D-Cha-L-Aze-D-Tyr-L-Har amide (Ac-[Cha][dCha][Aze][dY][hArg]-NH2) [Example 28]	90%
N-acetyl-L-Ala-D-Cha-L-Aze-D-Tyr-L-Har amide (Ac-A[dCha][Aze][dY][hArg]-NH2; SMILES CC(=O)N[C@@H](C)C(=O)N[C@H](CC1CCCCC1)C(=O)N1CC[C@H]1C(=O)N[C@H](Cc1ccc(O)cc1)C(=O)N[C@@H](CCCCNC(=N)N)C(N)=O) [Example 19]	77%
N-acetyl-L-Pnp-D-Cha-L-Aze-D-Tyr-L-Har amide (Ac-[Phe(4-NO2)][dCha][Aze][dY][hArg]-NH2; SMILES CC(=O)N[C@@H](Cc1ccc([N+](=O)[O-])cc1)C(=O)N[C@H](CC1CCCCC1)C(=O)N1CC[C@H]1C(=O)N[C@H](Cc1ccc(O)cc1)C(=O)N[C@@H](CCCCNC(=N)N)C(N)=O) [Example 29]	72%
N-acetyl-L-Iq3-D-Cha-L-Aze-D-Tyr-L-Har amide (Ac-[Tic][dCha][Aze][dY][hArg]-NH2) [Example 23]	72%
N-acetyl-L-Ppd-D-Cha-L-Aze-D-Tyr-L-Har amide (Ac-[Ppd][dCha][Aze][dY][hArg]-NH2) [Example 24]	76%
N-acetyl-L-Phg-D-Cha-L-Aze-D-Tyr-L-Har amide (Ac-[Phg][dCha][Aze][dY][hArg]-NH2) [Example 26]	95%
N-acetyl-L-Nhm-D-Cha-L-Aze-D-Tyr-L-Har amide (Ac-[Tpi][dCha][Aze][dY][hArg]-NH2; SMILES CC(=O)N1Cc2[nH]c3ccccc3c2C[C@H]1C(=O)N[C@H](CC1CCCCC1)C(=O)N1CC[C@H]1C(=O)N[C@H](Cc1ccc(O)cc1)C(=O)N[C@@H](CCCCNC(=N)N)C(N)=O) [Example 22]	80%

same assay, conditions: peptide concentration of 1 μM

Compound	inhibition of the amidase activity of the thrombin
N-acetyl-L-Ala-D-Cha-L-Pro-D-Tyr-L-Har amide (Ac-A[dCha]P[dY][hArg]-NH2; SMILES CC(=O)N[C@@H](C)C(=O)N[C@H](CC1CCCCC1)C(=O)N1CCC[C@H]1C(=O)N[C@H](Cc1ccc(O)cc1)C(=O)N[C@@H](CCCCNC(=N)N)C(N)=O) [Example 17]	56%
N-acetyl-L-Arg-L-Cha-D-Pro-D-Tyr-L-Arg amide (Ac-R[Cha][dP][dY]R-NH2; SMILES CC(=O)N[C@@H](CCCNC(=N)N)C(=O)N[C@@H](CC1CCCCC1)C(=O)N1CCC[C@@H]1C(=O)N[C@H](Cc1ccc(O)cc1)C(=O)N[C@@H](CCCNC(=N)N)C(N)=O) [Example 14]	47%
N-acetyl-D-Val-D-His-L-Cha-D-Pro-D-Tyr-L-Arg amide (Ac-[dV][dH][Cha][dP][dY]R-NH2; SMILES CC(=O)N[C@@H](C(=O)N[C@H](Cc1c[nH]cn1)C(=O)N[C@@H](CC1CCCCC1)C(=O)N1CCC[C@@H]1C(=O)N[C@H](Cc1ccc(O)cc1)C(=O)N[C@@H](CCCNC(=N)N)C(N)=O)C(C)C) [Example 3]	51%
N-acetyl-L-Trp-L-Cha-D-Pro-D-Tyr-L-Arg amide (Ac-W[Cha][dP][dY]R-NH2; SMILES CC(=O)N[C@@H](Cc1c[nH]c2ccccc12)C(=O)N[C@@H](CC1CCCCC1)C(=O)N1CCC[C@@H]1C(=O)N[C@H](Cc1ccc(O)cc1)C(=O)N[C@@H](CCCNC(=N)N)C(N)=O) [Example 9]	63%
N-acetyl-D-Glu-L-Cha-D-Pro-D-Tyr-L-Arg amide (Ac-[dE][Cha][dP][dY]R-NH2; SMILES CC(=O)N[C@H](CCC(=O)O)C(=O)N[C@@H](CC1CCCCC1)C(=O)N1CCC[C@@H]1C(=O)N[C@H](Cc1ccc(O)cc1)C(=O)N[C@@H](CCCNC(=N)N)C(N)=O) [Example 2]	58%
N-acetyl-D-Lys-L-Nle-L-Cha-D-Pro-D-Tyr-L-Arg amide (Ac-[dK][Nle][Cha][dP][dY]R-NH2; SMILES CCCC[C@H](NC(=O)[C@@H](CCCCN)NC(C)=O)C(=O)N[C@@H](CC1CCCCC1)C(=O)N1CCC[C@@H]1C(=O)N[C@H](Cc1ccc(O)cc1)C(=O)N[C@@H](CCCNC(=N)N)C(N)=O) [Example 12]	48%
N-acetyl-D-Val-L-Cha-D-Pro-D-Tyr-L-Arg amide (Ac-[dV][Cha][dP][dY]R-NH2; SMILES CC(=O)N[C@@H](C(=O)N[C@@H](CC1CCCCC1)C(=O)N1CCC[C@@H]1C(=O)N[C@H](Cc1ccc(O)cc1)C(=O)N[C@@H](CCCNC(=N)N)C(N)=O)C(C)C) [Example 8]	45%
N-acetyl-L-Ala-D-Cha-L-Aze-D-Tyr-L-Arg amide (Ac-A[dCha][Aze][dY]R-NH2; SMILES CC(=O)N[C@@H](C)C(=O)N[C@H](CC1CCCCC1)C(=O)N1CC[C@H]1C(=O)N[C@H](Cc1ccc(O)cc1)C(=O)N[C@@H](CCCNC(=N)N)C(N)=O) [Example 16]	63%
N-acetyl-D-Gln-D-His-L-Cha-D-Pro-D-Tyr-L-Arg amide (Ac-[dQ][dH][Cha][dP][dY]R-NH2; SMILES CC(=O)N[C@H](CCC(N)=O)C(=O)N[C@H](Cc1c[nH]cn1)C(=O)N[C@@H](CC1CCCCC1)C(=O)N1CCC[C@@H]1C(=O)N[C@H](Cc1ccc(O)cc1)C(=O)N[C@@H](CCCNC(=N)N)C(N)=O) [Example 1]	59%
N-acetyl-L-Ser-L-Arg-L-Cha-D-Pro-D-Tyr-L-Arg amide (Ac-SR[Cha][dP][dY]R-NH2; SMILES CC(=O)N[C@@H](CO)C(=O)N[C@@H](CCCNC(=N)N)C(=O)N[C@@H](CC1CCCCC1)C(=O)N1CCC[C@@H]1C(=O)N[C@H](Cc1ccc(O)cc1)C(=O)N[C@@H](CCCNC(=N)N)C(N)=O) [Example 11]	51%
N-acetyl-D-Tyr-L-Cha-D-Pro-D-Tyr-L-Arg amide (Ac-[dY][Cha][dP][dY]R-NH2; SMILES CC(=O)N[C@H](Cc1ccc(O)cc1)C(=O)N[C@@H](CC1CCCCC1)C(=O)N1CCC[C@@H]1C(=O)N[C@H](Cc1ccc(O)cc1)C(=O)N[C@@H](CCCNC(=N)N)C(N)=O) [Example 13]	47%
